Patent publication US20180305449A1 (ONCOMED PHARMACEUTICALS, published 2018)
Like-named read-outs stand apart in the source and are kept apart here.

Experiments:
biotin-DLL4-hFc [1] = molecular target: T1, biotin-DLL4-hFc (UniProt Q9NR61 27-522, limits assumed, biotinylated (site not stated)); assay: bispecific sandwich ELISA: antibody pre-incubated with 2 ug/ml biotin-DLL4-hFc, captured on VEGF-coated plate, detected with streptavidin-HRP
T1 construct: not shown: human Fc (hFc)
Method: (§1) FIG. 7. Bispecific antibody ELISA. Bispecific antibodies 219R45-MB-21M18, 219R45-MB-21R79, 219R45-MB-21R75, and 219R45-MB-21R83 were diluted in blocking buffer (lx PBS, 0.1% gelatin, 0.1% Polysorbate-20, pH 7.4) containing 2 μg/ml biotin-DLL4-hFc. The antibodies were serially diluted 3-fold from 500 ng/ml to 0.008 ng/ml. The antibody samples were incubated for 2 hours in blocking buffer containing the biotin-DLL4-hFc. After incubation, the antibody samples were transferred to a VEGF-coated assay plate (100 ul/well) and incubated for 2 hours. Streptavidin-HRP was added to each well and incubated for 1 hr. TMB substrate was added to the wells with a 10 minute color development and the reaction was stopped with 2M sulfuric acid. Absorbance was read at 450-650 nm and the data analyzed using the 4-parameter fit within the Softmax Pro analysis program.
as §1, with “VEGF (ATGEN, South Korea) was coated onto Nunc maxisorb plates at 2 ug/ml (100 μl/well) and incubated overnight at 2-8° C. Bispecific” for “FIG. 7. Bispecific antibody ELISA. Bispecific”, “to the” for “to a”, “Streptavidin-HRP (Jackson ImmunoResearch, West Grove, Pa.)” for “Streptavidin-HRP”, “analysis program (Molecular Devices, Sunnyvale, Calif.).” for “analysis program.”

[2] = molecular target: T2, Recombinant human DLL4-Fc (human, UniProt Q9NR61 27-522, limits assumed); assay: SPR (Biacore 2000), human DLL4-Fc amine-coupled on CM5 chip, antibody as analyte
T2 construct: also called hDLL4; hDLL4-Fc; not shown: Fc portion
T2 sequence (Q9NR61 27-522 limits assumed): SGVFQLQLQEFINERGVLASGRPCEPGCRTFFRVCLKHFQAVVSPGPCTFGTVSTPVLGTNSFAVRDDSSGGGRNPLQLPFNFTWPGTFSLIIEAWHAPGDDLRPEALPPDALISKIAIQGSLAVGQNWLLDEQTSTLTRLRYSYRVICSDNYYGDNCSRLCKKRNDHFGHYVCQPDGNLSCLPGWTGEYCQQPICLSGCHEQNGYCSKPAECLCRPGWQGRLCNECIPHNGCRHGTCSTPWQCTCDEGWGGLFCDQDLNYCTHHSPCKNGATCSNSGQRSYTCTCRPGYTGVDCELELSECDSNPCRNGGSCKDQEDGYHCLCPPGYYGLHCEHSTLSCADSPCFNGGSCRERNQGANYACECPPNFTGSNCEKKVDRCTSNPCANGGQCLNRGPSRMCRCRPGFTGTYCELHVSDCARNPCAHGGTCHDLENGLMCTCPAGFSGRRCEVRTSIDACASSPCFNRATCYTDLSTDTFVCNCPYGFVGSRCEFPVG
Method: (§2) The KDs of parental antibodies anti-VEGF 219R45 (IgG format), anti-DLL4 21R79 (IgG format), anti-DLL4 21M18 (IgG format) and bispecific antibodies 219R45-MB-21M18 and 219R45-MB-21R79 were determined using a Biacore 2000 system from Biacore LifeSciences (GE Healthcare). Recombinant human DLL4-Fc or mouse DLL4-Fc proteins were immobilized on CM5 carboxyl chips using standard amine-based chemistry (NHS/EDC) and blocked with ethanolamine Recombinant human VEGF₁₆₅ or mouse VEGF₁₆₅ were biotinylated and immobilized on streptavidin chips. The antibodies were serially diluted 2-fold from 100 nM to 0.78 nM in HBS-P (0.01M HEPES pH7.4, 0.15M NaCl, 0.005% v/v Polysorbate 20). For each antibody, all 8 dilutions were sequentially injected over a specific chip. Kinetic data were collected over time and were fit using the simultaneous global fit equation to yield affinity constants (KD values) for each bispecific antibody.

[3] = molecular target: T2, Recombinant human DLL4-Fc; assay: as above; remark: listed apart in the source
Method: as §2
Several additional anti-DLL4 antibodies were identified that had binding affinities intermediate to the KDs of 21M18 and 21R79. Two of these anti-DLL4 antibodies were used to produce anti-VEGF/anti-DLL4 bispecific antibodies 219R45-MB-21R75 and 219R45-MB-21R83. Using the Biacore 2000 system as described above, the KDs of the bispecific antibodies 219R45-MB-21R75 and 219R45-MB-21R83 to human DLL4 were determined.

[4] = molecular target: T2, Recombinant human DLL4-Fc; assay: SPR (Biacore 2000), human DLL4-Fc on CM5 chip; ratio of KDs against 219R45-MB-21M18
Method: as §2

[5] = molecular target: T3, Recombinant mouse VEGF165 (mouse, UniProt Q00731-2 27-190); assay: SPR (Biacore 2000), biotinylated mouse VEGF165 on streptavidin chip, antibody as analyte
T3 construct: also called mVEGF
T3 sequence (looked up): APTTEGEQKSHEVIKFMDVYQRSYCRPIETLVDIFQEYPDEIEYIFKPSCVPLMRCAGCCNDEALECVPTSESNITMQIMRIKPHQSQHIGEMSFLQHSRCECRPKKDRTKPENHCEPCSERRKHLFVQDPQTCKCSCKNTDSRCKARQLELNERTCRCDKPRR
Method: as §2

[6] = molecular target: T4, Recombinant human VEGF165 (human, UniProt P15692-4 27-191); assay: SPR (Biacore 2000), biotinylated human VEGF165 on streptavidin chip, antibody as analyte
T4 construct: also called hVEGF; hVEGF165
Method: as §2

biotin-DLL4-hFc [7] = molecular target: T1, biotin-DLL4-hFc; assay: Bispecific bridging ELISA: antibody pre-incubated with biotin-DLL4-hFc, captured on VEGF (ATGEN)-coated plate, streptavidin-HRP; potency relative to a reference anti-VEGF/anti-DLL4 bispecific antibody
Method: as §1, with “VEGF (ATGEN, South Korea) was coated onto Nunc maxisorb plates at 2 ug/ml (100 μl/well) and incubated overnight at 2-8° C. Bispecific” for “FIG. 7. Bispecific antibody ELISA. Bispecific”, “to the” for “to a”, “Streptavidin-HRP (Jackson ImmunoResearch, West Grove, Pa.)” for “Streptavidin-HRP”, “analysis program (Molecular Devices, Sunnyvale, Calif.).” for “analysis program.”

biotin-DLL4-hFc [8] = molecular target: T1, biotin-DLL4-hFc; assay: Bispecific bridging ELISA (VEGF-coated plate, biotin-DLL4-hFc detection); ratio against 219R45-MB-21M18
Method: as §1, with “VEGF (ATGEN, South Korea) was coated onto Nunc maxisorb plates at 2 ug/ml (100 μl/well) and incubated overnight at 2-8° C. Bispecific” for “FIG. 7. Bispecific antibody ELISA. Bispecific”, “to the” for “to a”, “Streptavidin-HRP (Jackson ImmunoResearch, West Grove, Pa.)” for “Streptavidin-HRP”, “analysis program (Molecular Devices, Sunnyvale, Calif.).” for “analysis program.”

T1 sequence (Q9NR61 27-522 limits assumed): as the sequence (Q9NR61 27-522 limits assumed) above

B1: anti-VEGF/anti-DLL4 bispecific antibody 219R45-MB-21R79 (bispecific antibody, human IgG2)
heavy 1: QVQLVQSGAEVKKPGASVKVSCKASGYTFTNYWMHWVRQAPGQGLEWMGDINPSNGRTSYKEKFKRRVTLSVDKSSSTAYMELSSLRSEDTAVYFCTIHYDDKYYPLMDYWGQGTLVTVSSASTKGPSVFPLAPCSRSTSESTAALGCLVKDYFPEPVTVSWNSGALTSGVHTFPAVLQSSGLYSLSSVVTVPSSNFGTQTYTCNVDHKPSNTKVDKTVERKCCVECPPCPAPPVAGPSVFLFPPKPKDTLMISRTPEVTCVVVDVSHEDPEVQFNWYVDGVEVHNAKTKPREEQFNSTFRVVSVLTVVHQDWLNGKEYKCKVSNKGLPAPIEKTISKTKGQPREPQVYTLPPSREKMTKNQVSLTCLVKGFYPSDIAVEWESNGQPENNYKTTPPMLKSDGSFFLYSKLTVDKSRWQQGNVFSCSVMHEALHNHYTQKSLSLSPGK
heavy 2: QVQLVQSGAEVKKPGASVKISCKASGYSFTAYYIHWVKQAPGQGLEWIGYIANYNRATNYNQKFKGRVTFTTDTSTSTAYMELRSLRSDDTAVYYCARDYDYDVGMDYWGQGTLVTVSSASTKGPSVFPLAPCSRSTSESTAALGCLVKDYFPEPVTVSWNSGALTSGVHTFPAVLQSSGLYSLSSVVTVPSSNFGTQTYTCNVDHKPSNTKVDKTVERKCCVECPPCPAPPVAGPSVFLFPPKPKDTLMISRTPEVTCVVVDVSHEDPEVQFNWYVDGVEVHNAKTKPREEQFNSTFRVVSVLTVVHQDWLNGKEYKCKVSNKGLPAPIEKTISKTKGQPREPQVYTLPPSREEMTKNQVSLTCLVEGFYPSDIAVEWESNGQPENNYKTTPPMLDSDGSFFLYSELTVDKSRWQQGNVFSCSVMHEALHNHYTQKSLSLSPGK
light: DIVMTQSPDSLAVSLGERATISCRASESVDNYGISFMKWFQQKPGQPPKLLIYAASNQGSGVPDRFSGSGSGTDFTLTISSLQAEDVAVYYCQQSKEVPWTFGGGTKVEIKRTVAAPSVIFPPSDEQLKSGTASVVCLLNNFYPREAKVQWKVDNALQSGNSQESVTEQDSKDSTYSLSSTLTLSKADYEKHKVYACEVTHQGLSSPVTKSFNRGEC
notes: Monovalent/bispecific IgG2 heterodimer with charge-modified CH3 domains and two identical light chains
biotin-DLL4-hFc [1]
  EC50 (read off the curve): ~0.6 ng/mL
[2]
  Kd: 0.53 nM
[3]
  Kd: 0.53 nM
[4]
  fold stronger binding than 219R45-MB-21M18: ~30 fold
[5]
  Kd: 12.5 nM
[6]
  Kd: 0.68 nM
biotin-DLL4-hFc [7]
  Relative Potency (%): 501%
biotin-DLL4-hFc [8]
  fold more potent than 219R45-MB-21M18: ~7 fold
